Test results reported in patent US20240287172A1 (SCIRHOM, published 2024).

T1: hiR1-FL-WT-T7 (human, UniProt Q96CC6 1-855)
T1 construct: on MEF-DKO cells
T1 sequence: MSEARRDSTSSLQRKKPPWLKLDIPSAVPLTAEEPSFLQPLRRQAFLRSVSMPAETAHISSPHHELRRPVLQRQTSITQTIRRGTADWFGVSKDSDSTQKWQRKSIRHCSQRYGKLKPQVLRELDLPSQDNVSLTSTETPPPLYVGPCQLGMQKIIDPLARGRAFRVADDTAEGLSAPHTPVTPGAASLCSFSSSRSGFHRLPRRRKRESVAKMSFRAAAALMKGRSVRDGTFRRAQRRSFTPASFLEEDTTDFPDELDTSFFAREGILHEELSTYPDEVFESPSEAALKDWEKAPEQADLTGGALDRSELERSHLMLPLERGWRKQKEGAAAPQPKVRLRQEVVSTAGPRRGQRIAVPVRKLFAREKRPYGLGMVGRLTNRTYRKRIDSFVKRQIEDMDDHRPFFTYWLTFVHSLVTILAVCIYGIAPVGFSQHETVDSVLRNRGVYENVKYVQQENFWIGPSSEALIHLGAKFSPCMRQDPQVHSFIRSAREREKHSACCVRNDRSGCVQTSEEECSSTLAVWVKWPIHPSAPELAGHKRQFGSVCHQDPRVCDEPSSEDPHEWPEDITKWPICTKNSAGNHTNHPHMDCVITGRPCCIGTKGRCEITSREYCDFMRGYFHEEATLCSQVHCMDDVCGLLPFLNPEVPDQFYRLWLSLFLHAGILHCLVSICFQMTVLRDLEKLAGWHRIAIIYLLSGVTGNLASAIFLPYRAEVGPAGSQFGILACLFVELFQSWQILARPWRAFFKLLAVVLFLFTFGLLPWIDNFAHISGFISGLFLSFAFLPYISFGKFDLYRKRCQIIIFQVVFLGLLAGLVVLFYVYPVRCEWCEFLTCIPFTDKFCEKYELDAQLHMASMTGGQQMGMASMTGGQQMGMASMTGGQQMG

T2: hiR2-FL-C508A-T7 (human, UniProt Q6PJF5 1-856)
T2 construct: reduced surface expression reported
T2 sequence: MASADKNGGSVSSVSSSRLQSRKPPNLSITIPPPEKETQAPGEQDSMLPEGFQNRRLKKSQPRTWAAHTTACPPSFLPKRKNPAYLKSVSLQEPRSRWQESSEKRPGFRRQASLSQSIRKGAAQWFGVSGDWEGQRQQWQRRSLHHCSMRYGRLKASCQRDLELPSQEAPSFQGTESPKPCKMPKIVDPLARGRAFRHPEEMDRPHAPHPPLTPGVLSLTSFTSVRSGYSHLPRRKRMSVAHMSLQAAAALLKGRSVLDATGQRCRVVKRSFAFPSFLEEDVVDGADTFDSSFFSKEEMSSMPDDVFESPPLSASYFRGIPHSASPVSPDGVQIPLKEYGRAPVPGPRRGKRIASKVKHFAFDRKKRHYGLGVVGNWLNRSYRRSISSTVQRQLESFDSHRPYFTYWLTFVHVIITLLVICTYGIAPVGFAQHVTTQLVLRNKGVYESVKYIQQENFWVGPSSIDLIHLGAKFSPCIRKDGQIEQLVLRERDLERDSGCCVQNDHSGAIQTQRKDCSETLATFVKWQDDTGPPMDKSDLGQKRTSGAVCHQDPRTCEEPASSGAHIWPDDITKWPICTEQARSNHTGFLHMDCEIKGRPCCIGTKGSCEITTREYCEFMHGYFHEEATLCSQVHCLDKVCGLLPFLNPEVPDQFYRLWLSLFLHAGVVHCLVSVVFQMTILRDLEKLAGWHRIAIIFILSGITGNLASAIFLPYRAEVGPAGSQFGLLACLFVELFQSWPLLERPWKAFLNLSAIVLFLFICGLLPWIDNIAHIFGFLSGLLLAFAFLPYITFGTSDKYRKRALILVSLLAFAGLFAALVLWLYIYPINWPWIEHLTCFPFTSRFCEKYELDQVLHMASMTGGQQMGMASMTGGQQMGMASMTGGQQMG


Experiments:
mouse iR1 wild type = biological target: T3, mouse iR1 wild type (mouse); experiment: FACS, MEF-DKO cells, 3 µg/ml
T3 construct: wild type, expressed on cells; also called mouse iRhom1 wild type

hiR1-FL-WT-T7 = biological target: T1, hiR1-FL-WT-T7; experiment: FACS, MEF-DKO cells, 3 µg/ml
hiR2-FL-C508A-T7 = biological target: T2, hiR2-FL-C508A-T7; experiment: FACS on MEF-DKO cells expressing the variant, 3 µg/ml antibody
Summary of the method: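 Cells stained with purified antibody at 3 μg/ml for 1 h on ice, then with PE-conjugated goat anti-mouse IgG F(ab′)2 (1:100) for 1 h on ice in the dark. Binding read by flow cytometry; buffer-only staining as control.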

Row | Binder | loss of binding vs wild type (mouse iR1 wild type) [%] | loss of binding vs wild type (hiR1-FL-WT-T7) [%] | loss of binding vs wild type (hiR2-FL-C508A-T7) [%]
1 | antibody 34 (antibody, V domains shown, mouse IgG, kappa light chain; also called clone #34; purified antibody 34) VH: QVTLKESGPGILQPSQTLSLTCSFSGFSLSTFSLGVGWIRQSSGKGLEWLAHIWWDDEKYYNPALKSRLTISKDTSKNQVFLKIANVDAADTATYYCARAYYSKSYYALDYWGQGTSVTVSS VL: DIQMTQSPSSLSASLGERVSLTCRASQEISGYLSWLQQKPDGTIKRLIYAASTLDSGVPKRFSGSRSGSDYSLAISSLESEDFADYYCLQYANFPFTFGSGTKLEIK | ≥ 95 | ≥ 95 | ≥ 30
2 | antibody 48 (antibody, V domains shown, mouse IgG, kappa light chain; also called clone #48; purified antibody 48) VH: QVQLQQSGTELVRPGTSVKVSCKASGYAFTNYLIEWVKQRPGQGLEWIGVINPGSGFTKYNEKFKGKATLTADKSSSTVYMHLSSLTSEDSAVYFCARGLYRAMDYWGQGTSVTVSS VL: DIQMTQSPASQSASLGESVTITCLASQTIATWLAWYQQKPGKSPQLLIYGATTLADGVPSRFSGGGSGTKFSFKISSLQAEDFVSYYCQQLYSTPYTFGGGTKLEIK | ≥ 60 | ≥ 60 | –
3 | antibody 50 (antibody, V domains shown, mouse IgG, kappa light chain; also called clone #50; purified antibody 50) VH: QVQLQQSGAELVRPGASVKVSCKASGYAFSNYLIEWVKQRPGQGLEWIGVINPGSGFTKYNEKFKGKATLTADKSSSTAYMQLSSLTSEDSAVYFCARGLYRAMDYWGQGTSVTVSS VL: DIQMTQSPASQSASLGESVTITCLASQTIGTWLAWYQQKPGKSPQLLIYAAASLADGVPSRFSGGGSGTKFSFKISSLQAEDFVNYYCQQIYSTPYTFGGGTKLEIK | ≥ 95 | ≥ 95 | –
4 | antibody 5 (antibody, V domains shown, mouse IgG, kappa light chain; also called clone #5; purified antibody 5) VH: QVTLKESGPGILQPSQTLSLTCSFSGFSLSTFGMGVGWIRQPSGKGLEWLAHIWWDDEKYYNSALKSRLTISKATSKNQAFLKIANVDTADTATYYCARISNYGSNYWYFNVWGTGTTVTVSS VL: QVVLTQSPALMSASPGEKVTMTCSAGSSVSCMYWYQQKPGSSPRVLIYDTSNLASGVPARFTGSGSGTSYSLTISRMEAEDAASYYCQQWNSYPLTFGAGTKLELK | ≥ 95 | ≥ 95 | ≥ 30
5 | antibody 44 (antibody, V domains shown, mouse IgG, kappa light chain; also called clone #44; purified antibody 44) VH: QVTLKESGPGILQPSQTLSLTCSFSGFSLSTFGMGVGWIRQPSEKGLEWLAHIWWDDDKYYNPALKSRLTISKDTSKNQIFLKITNVDTAETATYYCSRIGNYGSNYWYFDVWGTGTTVTVSS VL: QIVLTQSPAVMSASPGEKVTMTCTASSSVYYMYWYQQTPGSSPRLLIYDTSNLASGVPVRFSGSGSGTSYSLTISRMEAEDAATYYCQQWNTYPLTFGAGTKLELK | ≥ 95 | ≥ 95 | ≥ 30
6 | antibody 43 (antibody, V domains shown, mouse IgG, kappa light chain; also called clone #43; purified antibody 43) VH: QVALKESGPGILQPSQTLSLTCSFSGFSLSTFGMGVGWIRQSSGKGLEWLANIWWDDDKYYNPALKSRLTISKDASKNQAFLKIANVDTADTATYYCARIGNYGSNYWYFDVWGTGTTVTVSS VL: QIVLTQSPAIMSASPGERVTMTCSANSRISYMYWYQQKPGSSPRLLIYDTSNLASGVPVRFSGSGSGTSYSLTISRMEAEDAATYNCQQWSSYPLTFGAGTKLELK | ≥ 95 | ≥ 95 | ≥ 30
7 | antibody 42 (antibody, V domains shown, mouse IgG, kappa light chain; also called clone #42; purified antibody 42) VH: QVTLKESGPGILQPSQTLSLTCSLSGFSLSTFGRGVGWIRQPSGKGLEWLAHIWWDDEKYYNPALKSRLTISKDTSKNQVFLRIANVDTADTATYYCARIQNYGSNYWYFDVWGTGTTVTVSS VL: LIVLTQSPAIMSASPGEKVTMTCGATSRISYMFWYQQKPGSSPRVLIYDTSNLASGVPVRFSGSGSGTSYSLTISRVEAEDVATYYCQQWNSYPLTFGAGTKLELK | ≥ 95 | ≥ 95 | ≥ 30
8 | antibody 22 (antibody, V domains shown, mouse IgG, kappa light chain; also called clone #22; purified antibody 22) VH: QVTLKESGPGILQPSQTLSLTCSFSGFSLSTFGMGVGWIRQPSGKGLEWLAHIWWDDEKYYNSALKSRLTISKATSKNQVFLKIANVDTADTATYYCARISNYGSNYWYFNVWGTGTTVTVSS VL: QVVLTQSPALMSASPGEKVTMTCSAGSSVSYMYWYQQKPGSSPRVLIYDTSNLASGVPARFTGSGSGTSYSLTISRMEAEDAATYYCQQWNSYPLTFGAGTKLELK | ≥ 95 | ≥ 95 | ≥ 30
9 | antibody 16 (antibody, V domains shown, mouse IgG, kappa light chain; also called clone #16; purified antibody 16) VH: QVTLKESGPGILQPSQTLSLTCSFSGFSLSTFALGVGWIRQPSGRGLEWLAHIWWDDDKYYNPALKSRLTISKDTSKNHVFLKIANVDTADTATYYCARITTYYYGMDYWGQGTSVTVSS VL: DIVLSQSPATLSVTPGDSVSLFCRASQSIGNHLHWYQQESHASPRLLIKYASQSISGIPSRFSGSGSGTDFTLSINSVETEDFGMYFCQQSYNWPLTFGAGTKLELK | ≥ 95 | ≥ 95 | –
10 | antibody 3 (antibody, V domains shown, mouse IgG, kappa light chain; also called clone #3; purified antibody 3) VH: QVTLKESGPGILQPSQTLSLTCSFSGFSLTTFAMGIGWVRQPSGKGLEWLAHIWWDGEKYNNPVLKSRLTISKDTSKNQVFLRIANVDTPDTATYYCARISSIYYIIDNWGQGTSVTVSS VL: DIVLTQSPATLSVTPGHSVSLSCRASQSISNNLHWYQKKSHESPRLLIKYVSQSISGIPSRFSGSGSGTDFTLSINSVETEDFGMYFCQQSYNWPLTFGAGTKLELK | ≥ 95 | ≥ 95 | –
